Assay results: paper doi:10.1101/798769 (bioRxiv, 2019)

Tests used:
[1] = biological target: complete C-terminus of PfCSP (C-CSP) (Plasmodium falciparum NF54, UniProt P19597); experiment: SPR
[2] = biological target: T1, NPDP peptide (PfCSP aa 101-116) (Plasmodium falciparum NF54); experiment: SPR
T1 chain: NPDPNANPNVDPNANP

[3] = biological target: T2, NANP 5.5-mer peptide, NP(NANP)5 (Plasmodium falciparum); experiment: SPR
T2 chain: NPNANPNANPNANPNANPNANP

[4] = biological target: T3, KQPA peptide (PfCSP aa 95-109) (Plasmodium falciparum NF54); experiment: SPR
T3 chain: KQPADGNPDPNANPN

[5] = biological target: T4, NANP pentamer peptide (NANP5) (Plasmodium falciparum (NF54)); experiment: crystal structure
T4 chain: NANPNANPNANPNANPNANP

[6] = biological target: T5, NANP trimer peptide (NANP3) (Plasmodium falciparum); experiment: ITC
T5 chain: NANPNANPNANP

NDN3 peptide = biological target: T6, NDN3 peptide (Plasmodium falciparum); experiment: ITC
T6 chain: NANPNVDPNANP

DND3 peptide = biological target: T7, DND3 peptide (Plasmodium falciparum); experiment: ITC
T7 chain: NVDPNANPNVDP

[7] = biological target: NVDP peptide (PfCSP aa 109-125) (Plasmodium falciparum NF54, UniProt P19597); experiment: SPR
NVDP peptide (PfCSP aa 109-125), sequence (P19597 109-128): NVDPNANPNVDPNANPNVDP

B1: mAb 3246 (recombinant human IgG1, kappa) (antibody, V domains shown)
VH: QVQLVESGGGVVQPGRSLRLSCAASGFTFSGSGMHWVRQAPGKGLEWVAIIWYDGSNKFYADSVKGRFTISRDNSKNTLYLQMNSLRGEDTAVYYCARVGDGDGNYMDVWGKGTTVTVSS
VL: not shown
B1: binds [1].

B2: mAb 2541 (recombinant human IgG1, kappa) (antibody, V domains shown)
VH: QVQLVESGGGVVQPGRSLRLSCAASGFTFSSYGMHWVRQTTGKGLEWVAIIWHDGSKKYYADSVKGRLTISRDNSKNTLYLQMNSLRVEDTALYYCARVGDYSDFKYGAFDIWGQGTMVTVSS
VL: DIQMTQSPSTLSASVGDRVTITCRASQSISSWLAWYQQKPGKAPNLLIYKASTLESGVPSRFSGSGSGTEFTLTISSLQPDDFATYYCQQYNSYWTFGQGTRVEIK
B2: binds [2]; binds [3]; binds [4].

B3: Fab fragment of mAb 2541 (Fab, V domains shown)
VH: B2 VH
VL: B2 VL
B3: binds [5]; binds [6]; no binding (NDN3 peptide).

B4: Fab fragment of mAb 4498 (Fab, V domains shown)
VH: QVQLVESGGGVVQPGRSLRLSCAASGFTFSIYGMHWVRQAPGKGLEWVALIWYDGTNKYYTDSVKGRFTISRDNSKNTLFLQMNSVRAEDTAVYYCARDAHYSDSSGYSSWGYFDYWGQGSLVTVSS
VL: EIVLTQSPATLSLSPGERATLSCRASQSVSSYLAWYQQKPGQAPRLLIFDASIRATGIPARFSGSGSGTDFTLTISSLEPEDFAVYYCQQRSNWYTFGQGTKLEIK
B4: binds [6]; binds (NDN3 peptide); binds (DND3 peptide).

B5: mAb 4498 (recombinant human IgG1, kappa) (antibody, V domains shown)
VH: B4 VH
VL: B4 VL
B5: binds [7]; binds [2]; binds [3].
